Data from patent US12577311 (dated 2026).
Changes are numbered by the printed parent chain.

B1: G39 (antibody, V domains shown)
VH: not shown
VL: QSVLTQPPSVSGAPGQRVTISCTGSSSNIGRGYNVHWYQQLPGTAPKLLIYDNTNRPSGVPARFSGSKSATSASLAITGLQADDEADYYCQSYDSGLRWVFGGGTKLTLLR
B2: G6 (antibody, V domains shown)
VH: QVQLVQSGGGLVQPGGSLRLSCAASEFTFGTYAMTWVRQAPGKGLEWVSAVSGSGGSTYYADSVKGRFTISRDNSRNTLYLQMNSLRADDTAVYYCARGPVLRYGFDIWGQGTMVIVSS
VL: QSVLTQPPSVSGAPGQRITISCTGSRSNIGADYDVHWYQQLPGTAPKLLIYANNNRPSGVPGRFSASKSGTSASLAISGLQAEDEADYYCQSYDSSLRAWVFGGGTKLAVLG
B3: G57 (antibody, V domains shown)
VH: QVQLVQSGGGVVQPGRSLRLSCAASGFTFSSYGMHWVRQAPGKGLEWVAVISYDGSNKYYADSVKGRFTISRDNSKNTLYLQMNSLRAEDTAVYYCAREAPYSSSLDAFDIWGQGTMVTVSS
VL: QSVLTQPPSVSGAPGQRVTISCTGSSSNIGRGYNVHWYQQLPGTAPKLLIYGNSNRPSGVPDRFSGSSSGNTASLTITGAQAEDEADYYCHSRDNNGHHIFGGGTKLTVLS
B4: G45 (antibody, V domains shown)
VH: QVQLVQSGGGLVRPGGSLRLSCAASGFPFSSYAMSWVRQAPGKGLEWVSAISANGGTTYYADSVKGRFTISRDNSKNTLYLQMNSLRAEDTAVYYCANNGNYRGAFDIWGQGTTVTVSS
VL: QSVLTQPPSVSGAPGQRITISCTGSSSNIGAGYDVHWYQQVPGKAPKVVIYGNNNRPSGVPDRFSGSKSGASASLAITGLQTEDEADYYCQSYDKSLTWVFGGGTKVTVLG
B5: G119 (antibody, V domains shown)
VH: B4 VH with R13Q, T114M, T116I
VL: QSVLTQPPSVSGAPGQRVTISCTGSSSNIGAGYDVHWYQQLPGTAPKLLIYGNTNRPSGVPDRFSGSKSGTSASLAIIGLQADDEADYYCQSYDSTLRVWMFGGGTKLTVLG
B6: G36 (antibody, V domains shown)
VH: B4 VH with Q1E, L11V, R13Q, T114M
VL: B5 VL with Y33F, I78T, D83E, A86T, T96R, R98S, V99A, M101V
B7: G9 (antibody, V domains shown)
VH: QVQLQESGGGLVQPGGSLRLSCAASGFTFSSYAMSWVRQAPGKGLEWVSAISGSGGSTYYADSVKGRFTISRDNSKNTLYLQMNSLRAEDTAVYYCARSHSSGGFDYWGQGTLVTVSS
VL: B5 VL with A31R, D34N, I78T, D83E, A86G, T96S, R98S, V99A, M101V
B8: G106 (antibody, V domains shown)
VH: B4 VH with Q1E, R13Q, P28T
VL: QSVLTQPPSVSGAPGQRVTISCTGSSSNIGAGFDVHWYQQLPGTAPRLLIYGNNNRPSGVPDRFSGSKSGTSASLAITGLQAEDETDYFCQSYDSSLSAWVFGGGTKVTVLR
B9: G40 (antibody, V domains shown)
VH: B7 VH with Q5V, E6Q, R98T, S99Y, H100G, S101D, S102Y, G104S, F105L
VL: B2 VL with I18V, R26S, D32G, G62D, A66G, S78T
B10: G10 (antibody, V domains shown)
VH: B4 VH with R13Q, T114M
VL: QSVLTQPPSVSGAPGQRVTISCTGSSSNIGAGYDVHWYQQLPGTAPKLLIYGNSNRPSGVPDRFSGSKSGSSASLAITGLQAEDEAHYYCQSYDRSLSWVFGGGTKLTVLG
B11: G37 (antibody, V domains shown)
VH: B4 VH with L11V, R13Q, T114M
VL: B8 VL with V18I, S26R, G32D, F33Y, R47K, G52A, R112G
B12: G27 (antibody, V domains shown)
VH: QVTLKESGGGVVQPGTSLRLSCAASGFTFSNYAMTWVRQAPGKGLEWVGLISYDGSVTHYTDSVKGRFTISRDNAKNSLYLQMNTLRADDTAVYYCARGSGYQEHWGQGTLVTVSS
VL: LPVLTQPPSVSVAPGQTARITCGGNNIGSKSVEWYQQKPGQAPVLVIYYDSDRPSGIPERFSGSNSGNTATLTISRVEAGDEADYYCQVWDSSSDHHVVFGGGTKLTVLG
B13: G125 (antibody, V domains shown)
VH: EVQLVESGGGVVQPGRSLRLSCAASGFTFSSYGMHWVRQAPGKGLEWVSAISGSGGSTYYADSVKGRFTISRDNAKNTLYLQMNSLRAEDTAVYYCARAAVTGGFDPWGQGTLVTVSS
VL: QPGLTQPPSVSVAPGQTARITCGGDNIGRKSVHWYQQRPGQAPILVIRDDRDRPSGIPERFSGSSSVNTATLIISRVEAGDEADYYCQVWDSSSKHYVFGPGTKVTALG
B14: anti-CAIX (G36) CAR (scFv, V domains shown)
VH: B4 VH with Q1E, L11V, R13Q, T114M
VL: B8 VL with R47K, N54T, F89Y, S96R, V108L, R112G

These binders were tested against T1, CAIX (UniProt Q16790 38-414) (assay: not given).

Row | Kd | Binder
1 | 3.43 nM | B1
2 | 25.9 nM | B2
3 | 4.25 nM | B3
4 | 12.5 nM | B4
5 | 1.49 nM | B5
6 | 3.22 nM | B6
7 | 99.6 nM | B7
8 | 3.2 nM | B8
9 | 21.8 nM | B9
10 | 1.62 nM | B10
11 | 1.89 nM | B11
12 | 25.1 nM | B12
13 | 40.3 nM | B13

Biological target: T1, CAIX
Test: not given
Remark: another data set of the same source

Row | Kd | Binder
14 | 3.43 nM | B1
15 | 25.9 nM | B2
16 | 4.25 nM | B3
17 | 12.5 nM | B4
18 | 1.49 nM | B5
19 | 3.22 nM | B6
20 | 99.6 nM | B7
21 | 3.2 nM | B8
22 | 21.8 nM | B9
23 | 1.62 nM | B10
24 | 1.89 nM | B11
25 | 25.1 nM | B12
26 | 40.3 nM | B13

These binders were tested against T2, PE labeled CAIX protein (UniProt Q16790 38-414) (assay: FACS binding).

Row | EC50 | Binder
27 | 0.132 µg/mL | B14

Biological target: T2, PE labeled CAIX protein
Test: FACS binding
Remark: another data set of the same source

Row | EC50 | Binder
28 | 0.132 µg/mL | B14

Biological target: T1, CAIX
Test: not given
Remark: another data set of the same source

Row | Kd | Binder
29 | 3.43 nM | B1
30 | 25.9 nM | B2
31 | 4.25 nM | B3
32 | 12.5 nM | B4
33 | 1.49 nM | B5
34 | 3.22 nM | B6
35 | 99.6 nM | B7
36 | 3.2 nM | B8
37 | 21.8 nM | B9
38 | 1.62 nM | B10
39 | 1.89 nM | B11
40 | 25.1 nM | B12
41 | 40.3 nM | B13
